Data: patent US20150030599A1 (SAMSUNG ELECTRONICS, published 2015)

Target: T1, EGFR-Fc (#344-ER, R&D Systems) (UniProt P00533 25-645)
T1 construct: Bought reagent; not shown: Fc part of the bought fusion protein is not described
Assay: SPR (Biacore T100), ME22S captured on human Fab binder, EGFR-Fc injected
Method: In addition, the affinities of the prepared anti-c-Met/anti-EGFR bispecific antibody to the two types of antigens, c-Met and EGFR, were each identified using Biacore T100 (GE). A human Fab binder (GE Healthcare) was immobilized at the surface of a CM5 chip (#BR-1005-30, GE) according to the manufacturer's specifications. […] 10 mM Glycine-HCl (pH 1.5) solution was injected thereto to regenerate the surface. In order to measure affinity, the data obtained from this experiment was fitted using BIAevaluation software (GE Healthcare, Biacore T100 evaluation software).

- Kd: 0.49 nM
- koff: 9.2e-05 s⁻¹
- kon: 190000 M⁻¹ s⁻¹
B1: anti-c-Met/anti-EGFR bispecific antibody ME22S (bispecific antibody)
heavy: EVQLVESGGGLVQPGGSLRLSCAASGFTFTDYYMSWVRQAPGKGLEWLGFIRNKANGYTTEYSASVKGRFTISRDNSKNTLYLQMNSLRAEDTAVYYCARDNWFAYWGQGTLVTVSSASTKGPSVFPLAPCSRSTSESTAALGCLVKDYFPEPVTVSWNSGALTSGVHTFPAVLQSSGLYSLSSVVTVPSSNFGTQTYTCNVDHKPSNTKVDKTVERKCCVECPPCPAPPVAGPSVFLFPPKPKDTLMISRTPEVTCVVVDVSHEDPEVQFNWYVDGVEVHNAKTKPREEQFNSTFRVVSVLTVVHQDWLNGKEYKCKVSNKGLPAPIEKTISKTKGQPREPQVYTLPPSREEMTKNQVSLTCLVKGFYPSDIAVEWESNGQPENNYKTTPPMLDSDGSFFLYSKLTVDKSRWQQGNVFSCSVMHEALHNHYTQKSLSLSPGKGGGGSGGGGSEVQLLESGGGLVQPGGSLRLSCAASGFTFSNYDMSWVRQAPGKCLEWVSGISHSSGSKYYADSVKGRFTISRDNSKNTLYLQMNSLRAEDTAVYYCAKDATPRPLKPFDYWGQGTLVTVSSGGGGSGGGGSGGGGSQSVLTQPPSASGTPGQRVTISCTGSSSNIGNNDVSWYQQLPGTAPKLLIYDDNKRPSGVPDRFSGSKSGTSASLAISGLRSEDEADYYCGSWDASLNAYVFGCGTKLTVLG
light: DIQMTQSPSSLSASVGDRVTITCKSSQSLLASGNQNNYLAWYQQKPGKAPKMLIIWASTRVSGVPSRFSGSGSGTDFTLTISSLQPEDFATYYCQQSYSRPYTFGQGTKVEIKRTVAAPSVFIFPPSDEQLKSGTASVVCLLNNFYPREAKVQWKVDNALQSGNSQESVTEQDSKDSTYSLSSTLTLSKADYEKHKVYACEVTHQGLSSPVTKSFNRGEC
notes: The modified anti-EGFR scFv is fused through (G4S)2 to the C-terminus of the Fc of L3-1Y-IgG2
